Biological target: SARS-CoV-2 spike RBD (Wuhan-Hu-1) (Severe acute respiratory syndrome …, UniProt P0DTC2)
Test: SPR

Binder	Kd
COVIC-22 (antibody, V domains shown) VH: EVQLLESGGGLVQPGGSLRLSCAASGFTFSRHAMNWVRQAPGKGLEWVSGISGSGDETYYADSVKGRFTISRDNSKNTLYLQMNSLRAEDTAVYYCARDLPASYYDSSGYYWHNGMDVWGQGTLVTVSS	0.414 nM
COVIC-63 (antibody) QVQLQESGGGLVQAGGSLRLSCAASGRTFSEYAMGWFRQAPGKEREFVATISWSGGSTYYTDSVKGRFTISRDNAKNTVYLQMNSLKPDDTAVYYCAAAGLGTVVSEWDYDYDYWGQGTQVTVSSGGSGGSQVQLQESGGGLVQAGGSLRLSCAASGRTFSEYAMGWFRQAPGKEREFVATISWSGGSTYYTDSVKGRFTISRDNAKNTVYLQMNSLKPDDTAVYYCAAAGLGTVVSEWDYDYDYWGQGTQVTVSSGGGGSGGGGSEPKSCDKTHTCPPCPAPELLGGKKKPLDGEYFTLQIRGRERFEMFRELNEALELKDAQAGKEPG	185 nM
COVIC-336 (antibody, V domains shown) VH: QITLKESGPTLVKPTQTLTLTCTFSGFSLSSGGVGVGWIRQPPGKALEWLALIYWDDDKRYRPSLKSRLTITRDTSTNQVVLTMTNMDPVDTATYFCARHQIATVFDHWGQGTLVTVSS VL: QSALTQPASVSGSPGQSITISCTGTSSDVGGYNYVSWYQQHPGKAPKLMIYEVSNRPSGVSSRFSGSKSGNTASLTISGLQAEDEADYYCSSYTRSSPLVAFGGGTKVTVL	2.14 nM
COVIC-162 (antibody, V domains shown) VH: QLQLQESGPGLVKPSETLSLTCTVSGGSISNSNYYWGWIRQPPGKGLEWIGSIYYSGRTYYNPSLKSRVTISVDTSKNQFSLKLSSVTAADTAVYYCARMGLLWFGEFYGMDVWGQGTTVTVSS VL: DIQMTQSPSSLSASVGDRVTITCRASQGISSWLAWYQQKPEKAPKSLIYDASSLQRGVPSRFSGSGSGTDFTLTISSLQPEDFASYYCQQYNSYPLTFGGGTRVEIKR	191 nM
COVIC-32 (antibody, V domains shown) VH: QVQLLESGGGLVQPGGSLRLSCAASGFTFSSYAMSWVRQAPGKGLEWASAISGSGGSTYYADSVEGRFTISRDNSKNTLYLQMNSLRAEDTAVYYCAKDTGYCGDDCYIKLIRGGPDYWGQGTLVTVSS VL: DIVMTQSPLSLPVTLGQPASISCRSSQSLVYSDGNTFLNWFQQRPGQSPRRLIYQVSNRDSGVPDRFSGSGSGTDFTLKISRVEAEDVGVYYCMQGTHWPRTFGQGTKLEIK	1.76 nM
COVIC-153 (antibody, V domains shown) VH: EVQLVESGGGLIQPGGSLRLSCAASGLTVSSNYMSWVRQAPGKGLEWVSIIYSGGSTYYADSVKGRFTISRDNSKNTLYLQMNSLRAEDTAVYYCARLGGYYYYGMDVWGQGTTVTVSS VL: DIQMTQSPSSLSASVGERVTITCQASQDIRNYLNWYQKKPGKAPKLLIYDSSNLETGVPSRFSGSGSGTDFTFTISSLQPEDIATYYCQQYDNLPITFGQGTRLEIKR	2.06 nM
COVIC-156 (antibody, V domains shown) VH: EVQLVESGGGLIQPGGSLRLSCAASGVTVSSNYMNWVRQAPGKGLEWVSVIYSGGSTYYADSVKGRFTISRDNSKNTLFLQMNSLRAEDSAVYYCARDLGPYGVDVWGQGTTVTVSS VL: DIQLTQSPSFLSASVGDRVTITCWASQGISSYLAWYQQKPGKAPKLLIYAASTLQSGVPSRFSGSGSGTEFTLTISSLQPEDFATYYCQELNSYPLTFGQGTRLEIKR	0.446 nM
COVIC-322 (antibody) chain 1: EVQLLESGGGLVQPGGSLRLSCAASGRTFSEYAMGWFRQAPGKGLEFVSTISWSGGSTYYADSVKGRFTISRDNSKNTLYLQMNSLRAEDTAVYYCAAAGLGTVVSEWDYDYDYWGQGTLVTVSSGGGGSGGGGSASTKGPSVFPLAPSSKSTSGGTAALGCLVKDYFPEPVTVSWNSGALTSGVHTFPAVLQSSGLYSLSSVVTVPSSSLGTQTYICNVNHKPSNTKVDKKVEPKSCDKTHTAPELLGGPSVFLFPPKPKDTLMISRTPEVTCVVVDVSHEDPEVKFNWYVDGVEVHNAKTKPREEQYNSTYRVVSVLTVLHQDWLNGKEYKCKVSNKALPAPIEKTISKAKGQPREPQVYTLPPSRDELTKNQVSLTCLVKGFYPSDIAVEWESNGQPENNYKTTPPVLDSDGSFFLYSKLTVDKSRWQQGNVFSCSVMHEALHNHYTQKSLSLSPGKKKKPLDGEYFTLQIRGRERFEMFRELNEALELKDAQAGKEPG chain 2: EVQLLESGGGLVQPGGSLRLSCAASGRTFSEYAMGWFRQAPGKGLEFVSTISWSGGSTYYADSVKGRFTISRDNSKNTLYLQMNSLRAEDTAVYYCAAAGLGTVVSEWDYDYDYWGQGTLVTVSSGGGGSGGGGSKRTVAAPSVFIFPPSDEQLKSGTASVVCLLNNFYPREAKVQWKVDNALQSGNSQESVTEQDSKDSTYSLSSTLTLSKADYEKHKVYACEVTHQGLSSPVTKSFNRGEC	30.2 nM
COVIC-317 (antibody) EVQLLESGGGLVQPGGSLRLSCAASGRTFSEYAMGWFRQAPGKGLEFVSTISWSGGSTYYADSVKGRFTISRDNSKNTLYLQMNSLRAEDTAVYYCAAAGLGTVVSEWDYDYDYWGQGTLVTVSSGGGGSGGGGSASTKGPSVFPLAPSSKSTSGGTAALGCLVKDYFPEPVTVSWNSGALTSGVHTFPAVLQSSGLYSLSSVVTVPSSSLGTQTYICNVNHKPSNTKVDKKVEPKSCDKTHTAPELLGGPSVFLFPPKPKDTLMISRTPEVTCVVVDVSHEDPEVKFNWYVDGVEVHNAKTKPREEQYNSTYRVVSVLTVLHQDWLNGKEYKCKVSNKALPAPIEKTISKAKGQPREPQVYTLPPSRDELTKNQVSLTCLVKGFYPSDIAVEWESNGQPENNYKTTPPVLDSDGSFFLYSKLTVDKSRWQQGNVFSCSVMHEALHNHYTQKSLSLSPGKKKKPLDGEYFTLQIRGRERFEMFRELNEALELKDAQAGKEPGGGGGSGGGGSEVQLLESGGGLVQPGGSLRLSCAASGRTFSEYAMGWFRQAPGKGLEFVSTISWSGGSTYYADSVKGRFTISRDNSKNTLYLQMNSLRAEDTAVYYCAAAGLGTVVSEWDYDYDYWGQGTLVTVSS	41.3 nM
COVIC-333 (antibody, V domains shown) VH: QVQLVQSGAEVKKPGSSVRVSCKASGGTFISYTFNWVRQAPGQGLEWMGRIIPIFGIVNYAQKFQGRVTIAADKSTSTAYMELSSLRSEDTAMYYCATATVDYDSGEEQSSFDPWGQGTLVTVSS VL: EIVLTQSPGTLSLSPGERATLSCRASQSVSSSYLAWYQQKAGQTPRLLIYAASSRATGVPDRFSGSGSGTDFTLTISRLEAEDFAVYYCQQSWTFGQGTKVEIK	0.0111 nM
COVIC-305 (antibody, V domains shown) VH: QVQLVQSGAEVKKPGSSVRVSCKVSGYTFTGYYMHWVRQAPGQGLEWMGIINPSGGSTSYAQKFQGRVTMTRDTSTSTVYMELSSLRSEDTAVYYCARVRVGASDAFDIWGQGTMVTVSS VL: SYVLTQPPSVSVAPGQTARITCGGNNIGSKSVHWYQQKPGQAPVLVVYDDSDRPSGIPERFSGSNSGNTATLIISRVEAGDEADYYCQVWDSSSVHYVFGTGTKLTVLG	7.27 nM
COVIC-392 (antibody, V domains shown) VH: QVQLLESGGGLVQPGRSLRLSCAASGFTFDDYAMHWVRQPPGKGLEWVSGSSWNSGSVVYADSVKGRFTISRDSAKNSLHLQMNSLRVEDTALYYCAKAVDPTRGSYSPDYGFDIWGQGTMVTVS VL: not shown	0.0871 nM
COVIC-296 (antibody, V domains shown) VH: EVQLVESGGGLVQPGGSLRLSCAASGITVSSNYMNWVRQAPGKGLEWVSVIYSGGSTFYADSVKGRFTVSRHNSKNTLYLQMNSLRVEDTAVYYCAREGLVGTALAFDYWGQGNLVTVSS VL: DIQMTQSPSSLSASVGDRVTITCRASQSINNYLNWYQQKPGKAPNLLIYAASSLQSGVPSRFSGSGSGTDFTLTINSLQPEDFATYYCQQSYSTPPYTFGQGTKLEIK	0.501 nM
COVIC-238 (antibody, V domains shown) VH: QVQLVQSGSELKKPGASVKVSCKASGYTFTTYVMNWVRQAPGQGLEWMGWINTNTGNPTYAQGFTGRFVFSLDTSVSTASLQISSLKAEDTAVYYCSSEITTLGGMDVWGQGTTVTVSS VL: ASYVLTQPPSVSVAPGKTARITCGGNNIGSKSVHWYQQKPGQAPVLVIYYDSDRPSGIPERFSGSNSGNTATLTISGVEAGDEADYYCQVWDSISDHRVFGGGTKLTVLG	0.873 nM
COVIC-121 (antibody) QVQLQESGGGLVQAGGSLRLSCAASGRTFSEYAMGWFRQAPGKEREFVATISWSGGSTYYTDSVKGRFTISRDNAKNTVYLQMNSLKPDDTAVYYCAAAGLGTVVSEWDYDYDYWGQGTQVTVSSGGSGGSQVQLQESGGGLVQAGGSLRLSCAASGRTFSEYAMGWFRQAPGKEREFVATISWSGGSTYYTDSVKGRFTISRDNAKNTVYLQMNSLKPDDTAVYYCAAAGLGTVVSEWDYDYDYWGQGTQVTVSSGGGGSGGGGSKKKPLDGEYFTLQIRGRERFEMFRELNEALELKDAQAGKEPGGGGGSGGGGSQVQLQESGGGLVQAGGSLRLSCAASGRTFSEYAMGWFRQAPGKEREFVATISWSGGSTYYTDSVKGRFTISRDNAKNTVYLQMNSLKPDDTAVYYCAAAGLGTVVSEWDYDYDYWGQGTQVTVSS	195 nM
COVIC-292 (antibody, V domains shown) VH: QMQLVQSGPEVKKPGTSVKVSCKASGFTFSGSAVQWVRQARGQRLEWIGWIVVGSGNTNYAQRFQERVTITRDMSTSTAYMELSSLRSEDTAVYYCAAPYCSSTSCRDGFDIWGQGTMVTVSS VL: not shown	6.71 nM
COVIC-265 (antibody, V domains shown) VH: QVQLVESGGGLVQPGGSLRLSCTVSGIDLSSYAMGWVRQAPGKGLEYIGIISGSGSTDYANWAKGRFTISRDNSKNTLYLQMNSLRAEDTAVYYCARAGYGVYGYAKYYGMDPWGQGTLVTVSS VL: DIQMTQSPSSLSASVGDRVTITCKASEDIHYGLNWYQQKPGKAPKLLIYGATTLESGVPSRFSGSGSGTDFTLTISSLQPEDFATYYCQQGYSTPLTFGGGTKVEIK	1.55 nM
COVIC-312 (antibody) chain 1: QVQLVQSGAEVKKPGSSVKVSCKASGGTFGISWVRQAPGQGLEWMGRIIPILGTANHAQKFQGRVTITADKSTGTVYMELSSLRSEDTAVYYCARDGDSGSYYETLGFDYWGQGTLVTVSSGGGGSGGGGSGGGGEVQLVESGGGLVKPGGSLRLSCAASGFTFSPYSMNWVRQAPGKGLEWVSSISVSNIYTYYADSVKGRFTISRDNAKNSLYLQMNSLRAEDTAIYYCARDLKKGGIQYDAFDIWGQGTVVTVSS chain 2: QSALTQPPSASGSPGQSVTISCTGTSSDVGGYNYVSWYQQHPGKAPKLMIYEVNKRPSGVPDRFSGSKSGNTASLTVSGLQAEDEADYYCSSYAGSNNLVFGGGTKLTVLGGGGSGGGGSGGGGEIVLTQSPATLSLSPGERATLSCRASQSVNDYLAWYQQKPGQAPRLLIYDASNRATGFPARFSGSGSGTDFTLTISSLEPEDFAVYYCQQRSNWPPTFGQGTRLEIK	0.347 nM

Reference: article PMC12014896 (2025)
